# ± gives the half width of the 95% confidence interval.
# Assays:
# [1] = folding stability dG unfold from trypsin proteolysis; higher = more stable
# Method in brief: (§1)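 Unfolding free energy was derived, per protease or combined, by relating Bayesian-fitted K50 values from sequencing counts to a sequence-predicted unfolded-state K50 and a shared folded-state K50. The underlying digests exposed cysteine-free mini-proteins under 80 residues, in a PA-tagged cDNA display construct, to trypsin and chymotrypsin at 11 threefold-diluted concentrations and to a no-protease condition. A filter kept only designs with AlphaFold2 dimer inter-PAE above 15.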
# [2] = folding stability dG unfold (combined trypsin and chymotrypsin); higher = more stable
# Method in brief: as §1
# [3] = folding stability dG unfold from chymotrypsin proteolysis; higher = more stable
# Method in brief: as §1
Sequence,folding stability dG unfold [1],folding stability dG unfold [2],folding stability dG unfold [3]
SAAKITEVDVEVGGDTITTTFRLEIDGKPYLAVTRLEPLTDPDGNPRFIAVTELYDEDGNLVATLPSDLSAG [r14_465_TrMRF],1.59 ± 0.032 kcal/mol,2.06 ± 0.059 kcal/mol,2.325 ± 0.018 kcal/mol
SAANTEEITITVPLTDPETGEERTVTIPVKYVNTNKPYKTPNGSTKTIPVPKSTVIKEAEEEAKKIFESSSA [r9_698_JUSTAS],-0.381 ± 0.95 kcal/mol,-0.369 ± 0.56 kcal/mol,0.213 ± 0.3 kcal/mol
SAAPDEVVTLEFTVPVVTTFEPGAPYVAPARLTVTFHPPDRVEIRLVSPDGRLVATRTVPPSVLLSEVISAG [r14_559_TrMRF],1.62 ± 0.032 kcal/mol,1.88 ± 0.081 kcal/mol,2.03 ± 0.041 kcal/mol
SAAPVRVEVEYDPERGVLRVRLYIPATSPEEARELVERFFAALGAEARITENPETGTFVVEVDIRLPPASAG [r14_424_TrMRF],4.09 ± 0.09 kcal/mol,4.92 ± 0.074 kcal/mol,5.15 ± 0.056 kcal/mol
SAARKIAKKLKEAFPNFPIKDIEITEYEPNPNGRPYMNISIQFPNGGKMEIQFDDPEHPEIREAIREIMSAG [r14_143_TrROS],1.59 ± 0.11 kcal/mol,1.49 ± 0.19 kcal/mol,1.69 ± 0.086 kcal/mol
SAATSSTSISIPASTTSLEDVRATLAALGYPPERIVALEVVKVEPGSTKITVTLERPDGTRRTVTVTSASAG [r14_30_JUSTAS],3.14 ± 0.054 kcal/mol,2.76 ± 0.058 kcal/mol,2.388 ± 0.011 kcal/mol
SADEALRRLLENMTPEELAALLAPAVPGPPVEVLVVPREVLPEVLRRLREEFDVEFEEEGDFVRIVVRGSAG [r14_7_TrMRF],2.28 ± 0.029 kcal/mol,2.73 ± 0.04 kcal/mol,2.915 ± 0.016 kcal/mol
SADHKFEIDINVFEHDGWRYIMIPVKYDDPQDVDEAAEKILREFGIPPNFNVNVMRSPNEVWINIRIPYSAG [r14_804_TrROS],2.08 ± 0.06 kcal/mol,2.53 ± 0.15 kcal/mol,2.85 ± 0.077 kcal/mol
SADLAAELEEGGFVVTITETVVSVTPQTLEKDSFVVEKDVVTTITVTPPPVAPPPPDPANLRDAAGAPVSAG [r14_569_JUSTAS],-0.0411 ± 0.041 kcal/mol,0.798 ± 0.084 kcal/mol,1.01 ± 0.023 kcal/mol
SADLAKNIAKKLNPDIKDVQIKDIELQPNPDNGYPVIKVELEVKMNDGPYKKSIWFMPNGFQIKIQPVPSAG [r14_397_TrROS],0.783 ± 0.17 kcal/mol,1.44 ± 0.29 kcal/mol,1.77 ± 0.21 kcal/mol
SADPGDTVELEFWLPPGMNPEFVEQMEDEIRNILRDLGLEVDVKVEPDPDNGYVPVTITITKEQLKDLFSAG [r14_602_TrROS],1.93 ± 0.12 kcal/mol,1.82 ± 0.18 kcal/mol,1.74 ± 0.1 kcal/mol
SADPLSSILSQALSVEFDPETGKVTITTKDKSIVEKALEEGAENATLTESEDDIYTATIDLPPLPEGVLSAG [r14_115_TrMRF],0.576 ± 0.12 kcal/mol,0.12 ± 0.39 kcal/mol,-0.155 ± 0.085 kcal/mol
SAEEELRKALENMSDEELEALLRAAAPPPKTVTIRLSEEELEKLAQELADEYNVTVTVEVDGKTLTLTLSAG [r14_7_TrROS_Hall],1.69 ± 0.024 kcal/mol,1.76 ± 0.049 kcal/mol,1.74 ± 0.051 kcal/mol
SAEELARRLRELGLEVEIVRIERERRPDGTIRIEVRLDGELVAELEVRLPPPPPPVEVVRDADGRERRVRSA [r9_442_TrROS_Hall],1.63 ± 0.18 kcal/mol,1.9 ± 0.27 kcal/mol,1.82 ± 0.4 kcal/mol
SAEEPEVVRLEIRITVVERDEDGRLREREVTLEVEVLPDGRVVIRVDGRVFVIDLETGELVEVLEDVEPSAG [r14_821_TrROS_Hall],3.77 ± 0.099 kcal/mol,4.02 ± 0.089 kcal/mol,4.14 ± 0.081 kcal/mol
SAEKEYKVKVKVKIEIVELSEEELENLPPGALVIEVDGKLYLMRIEVEEVEVEEVPEEPEVDEETGELLSAG [r14_126_TrROS_Hall],2.28 ± 0.16 kcal/mol,3.33 ± 0.17 kcal/mol,3.86 ± 0.1 kcal/mol
SAEKIYYKVKVKVEIEKDGKPDIELEIEFIVSPEIPPEKVKEFIEKFLKSKGYKIKKIEIETEPIPSLESAG [r14_979_TrMRF],3.95 ± 0.31 kcal/mol,5.03 ± 0.29 kcal/mol,4.86 ± 0.13 kcal/mol
SAEKKTVRVVLEITLPPGLKPGDTITVKIEVDGKVYEAKILRVEEVPPGQTVRIVLELPAEDVKITIEPSAG [r14_554_TrROS_Hall],3.21 ± 0.079 kcal/mol,3.81 ± 0.071 kcal/mol,4.06 ± 0.08 kcal/mol

# — the supplement of paper PMC12764529
